Test [1] has as its target T1, human EpCAM on SW480 cells (human, UniProt P16422 24-314).
T1 construct: whole, on cells; also called SW480 cells expressing human EpCAM; human colon cancer cell line SW480
T1 sequence (looked up): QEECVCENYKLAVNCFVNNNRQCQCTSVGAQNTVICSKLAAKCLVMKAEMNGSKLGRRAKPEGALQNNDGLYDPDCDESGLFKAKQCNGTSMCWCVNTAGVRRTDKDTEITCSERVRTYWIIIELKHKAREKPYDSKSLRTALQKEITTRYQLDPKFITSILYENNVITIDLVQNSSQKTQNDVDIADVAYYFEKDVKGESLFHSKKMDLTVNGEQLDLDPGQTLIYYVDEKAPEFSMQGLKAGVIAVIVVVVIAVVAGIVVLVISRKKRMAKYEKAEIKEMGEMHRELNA
Description: flow cytometry on SW480 cells expressing human EpCAM. On the procedure:
(§1) SW480 cells and CyEpCAM-CHO cells were trypsinized with 0.25% Trypsin-EDTA (Gibco), resuspended with a FACS buffer. […] Cells were then washed with the FACS buffer and resuspended in 50 μL FACS buffer. Mouse anti-Human IgG Fab Secondary Antibody PE conjugate(Invitrogen) were added, and allowed for incubation at 4° C. for 30 min. 150 μL FACS buffer was finally added, and the samples were analyzed using ACCURI® C6 Cytometer (BD Biosciences).
For orientation: A flow cytometer gives signals particle by particle.

Test [2] has as its target T2, huEpCAM.Fc (human EpCAM antigen construct) (human, UniProt P16422 24-265, limits assumed).
T2 construct: not shown: human IgG Fc
T2 sequence (looked up): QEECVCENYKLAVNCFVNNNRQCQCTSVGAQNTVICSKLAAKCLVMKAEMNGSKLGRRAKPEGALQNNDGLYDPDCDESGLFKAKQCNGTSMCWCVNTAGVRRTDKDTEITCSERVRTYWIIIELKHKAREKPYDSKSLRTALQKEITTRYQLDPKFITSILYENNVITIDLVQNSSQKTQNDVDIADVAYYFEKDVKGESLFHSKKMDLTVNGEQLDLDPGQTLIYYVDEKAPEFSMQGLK
Description: BLI (Octet QKe), antigen-Fc captured on AHC biosensor. On the procedure:
(§2) The expressions of the antigen constructs is described in U.S. Pat. No. 8,846,042. The antigen constructs were diluted to 0.02 mg/mL with dilution(PBS, 0.1% BSA, 0.02% Tween-20, 0.05% NaN3), and then immobilized on an anti-hIgG Fc capture (AHC) biosensor. […] The control wells containing only PBS were also set up. The detection results were analyzed using ForteBio Data Acquisition and ForteBio Data Analysis software.
A general note: BLI is a label-free optical method that tracks binding on a fibre tip over time.

For test [3], the target named is T3, cynomolgus monkey EpCAM on transfected CHO cells (CyEpCAM-CHO) (cynomolgus monkey).
T3 construct: whole, on cells; also called CHO cells expressing cynomolgus monkey EpCAM on the cell surface
T3 sequence (Q1WER1 24-314): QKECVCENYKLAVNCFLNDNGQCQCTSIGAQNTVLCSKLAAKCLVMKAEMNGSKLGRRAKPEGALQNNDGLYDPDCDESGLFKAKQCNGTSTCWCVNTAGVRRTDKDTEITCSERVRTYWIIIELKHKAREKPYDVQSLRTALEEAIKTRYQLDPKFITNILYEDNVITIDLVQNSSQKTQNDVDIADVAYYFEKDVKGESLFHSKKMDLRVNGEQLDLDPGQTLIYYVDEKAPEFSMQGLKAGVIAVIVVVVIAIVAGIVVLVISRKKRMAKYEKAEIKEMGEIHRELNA
Description: flow cytometry on CHO cells expressing cynomolgus monkey EpCAM (CyEpCAM-CHO). On the procedure: as §1

Test [4] concerns the target T2, huEpCAM.Fc (human EpCAM antigen …). Description: BLI (Octet QKe), antigen-Fc captured on AHC biosensor, ITAB1002 in solution. On the procedure:
as §2

Test [5] has as its target cynoEpCAM.Fc (cynomolgus EpCAM antigen construct) (cynomolgus monkey; human). The description is as above. On the procedure: as §2
Test [6] deals with T4, cynoCD3ε AA 1-27.Fc (cynomolgus CD3 antigen construct) (cynomolgus monkey; human, UniProt Q95LI5 22-48).
T4 construct: range 1-27; not shown: human IgG Fc
T4 chain (looked up): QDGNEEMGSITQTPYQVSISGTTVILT
The test is described as above. How it is done: as §2

Another test concerns the target T5, human CD3 on human PBMC (human, UniProt P07766 23-207).
T5 construct: whole, on cells; also called hPBMC; huPBMC
Description: flow cytometry (FACS) on human PBMC, detection with PE mouse anti-human lambda light chain, co-staining with CD4 antibody; y axis Binding rate (%). On the procedure:
Cells were washed with the FACS buffer once, resuspended in 50 μL FACS buffer, supplemented with CD4 Antibody (RFT-4g) APC-Cy7® conjugate(Invitrogen) and PE Mouse Anti-Human Light Chain […], (BD Pharmingen™), and incubated at room temperature for 45 min. 150 μL FACS buffer was finally added, and the samples were analyzed using ACCURI® C6 Cytometer (BD Biosciences).

The record followed here is patent publication US20190092862A1 (GENERON SHANGHAI, published 2019).

As a reminder, the EC50 is the concentration at which the effect is half-maximal. The term Kd denotes a measure of binding affinity in units of concentration. Broadly, the koff is the rate constant with which the complex falls apart. In general, kon refers to a measure of how fast the partners come together. Broadly, the EC50 (read off the curve) is the concentration needed to bring the measured effect to its halfway point.

T5 sequence (P07766 23-207): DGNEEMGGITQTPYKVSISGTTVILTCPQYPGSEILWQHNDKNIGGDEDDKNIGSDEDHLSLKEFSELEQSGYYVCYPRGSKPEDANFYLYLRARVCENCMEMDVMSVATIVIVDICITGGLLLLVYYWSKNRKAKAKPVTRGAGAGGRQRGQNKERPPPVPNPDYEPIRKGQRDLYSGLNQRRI

B1: ITAB1002 (exemplary EpCAM×CD3 Fab fusion protein) (bispecific antibody)
heavy: EVQLVESGGGLVQPGGSLRLSCAASGFTFSNYWMSWVRQAPGKGLEWVANIKQDGSEKFYADSVKGRFTISRDNAKNSLYLQMNSLRAEDTAVYYCARVGPSWEQDYWGQGTLVTVSAGGGGSGGGGSGGGGSGAQSVLTQPPSVSGAPGQRVTISCTGSSSNIGSYYGVHWYQQLPGTAPKLLIYSDTNRPSGVPDRFSGSKSGTSASLAITGLQAEDEADYYCQSYDKGFGHRVFGGGTKLTVLGGEVQLVESGGGLVQPGGSLRLSCAASGFTFNTYAMNWVRQAPGKGLEWVARIRSKYNNYATYYADSVKDRFTISRDDSKNTLYLQMNSLRAEDTAVYYCVRHGNFGNSYVSWFAYWGQGTMVTVSSASTKGPSVFPLAPSSKSTSGGTAALGCLVKDYFPEPVTVSWNSGALTSGVHTFPAVLQSSGLYSLSSVVTVPSSSLGTQTYICNVNHKPSNTKVDKKVEPKSCPPCS
light: EVQLVESGGGLVQPGGSLRLSCAASGFTFSNYWMSWVRQAPGKGLEWVANIKQDGSEKFYADSVKGRFTISRDNAKNSLYLQMNSLRAEDTAVYYCARVGPSWEQDYWGQGTLVTVSAGGGGSGGGGSGGGGSGAQSVLTQPPSVSGAPGQRVTISCTGSSSNIGSYYGVHWYQQLPGTAPKLLIYSDTNRPSGVPDRFSGSKSGTSASLAITGLQAEDEADYYCQSYDKGFGHRVFGGGTKLTVLGGQAVVTQEPSLTVSPGGTVTLTCRSSTGAVTTSNYANWVQQKPGQAPRGLIGGTNKRAPGTPARFSGSLLGGKAALTLSGVQPEDEAEYYCALWYSNLWVFGGGTKLTVLGQPKAAPSVTLFPPSSEELQANKATLVCLISDFYPGAVTVAWKADSSPVKAGVETTTPSKQSNNKYAASSYLSLTPEQWKSHRSYSCQVTHEGSTVEKTVAPTECPPCS
notes: An anti-EpCAM scFv is fused to the N-terminus of each chain of an anti-CD3 Fab; there is no Fc; also called EpCAM x CD3 Fab fusion protein; ITB1002
On to B1, for which the EC50 in test [1] was determined as 0.411 µg/mL; in test [3] it was 0.108 µg/mL. In addition, the dissociation constant Kd in test [2] is 2.49 nM; in test [4], 3.49 nM; in test [5], 4.71 nM; in test [6], 15.6 nM. In addition, the koff in test [2] is 4.98e-05 s⁻¹. In test [2], this molecule came in with a kon of 20000 M⁻¹ s⁻¹. For the same molecule, the “EC50 (read off the curve)” value with human CD3 on human PBMC is about 100 ng/mL.

B2: ITAB1012 (EpCAM×CD3 Fab fusion protein with a different EpCAM scFv) (bispecific antibody)
heavy: EVQLVESGGGLVQPGGSLRLSCAASGFTFSNYWMSWVRQAPGKGLEWVANIKQDGSEKFYVDSVKGRFTISRDNAKNSLYLQMNSLRAEDMAVYYCARVGGAWELGYWGQGTLVTVSAGGGGSGGGGSGGGGSGAQSVLTQPPSVSGAPGQRVTISCTGSSSNIGSYYGVHWYQQLPGTAPKLLIYSDTNRPSGVPDRFSGSKSGTSASLAITGLQAEDEADYYCQSYDSSLSGRVFGGGTKLTVLGGEVQLVESGGGLVQPGGSLRLSCAASGFTFNTYAMNWVRQAPGKGLEWVARIRSKYNNYATYYADSVKDRFTISRDDSKNTLYLQMNSLRAEDTAVYYCVRHGNFGNSYVSWFAYWGQGTMVTVSSASTKGPSVFPLAPSSKSTSGGTAALGCLVKDYFPEPVTVSWNSGALTSGVHTFPAVLQSSGLYSLSSVVTVPSSSLGTQTYICNVNHKPSNTKVDKKVEPKSCPPCS
light: EVQLVESGGGLVQPGGSLRLSCAASGFTFSNYWMSWVRQAPGKGLEWVANIKQDGSEKFYVDSVKGRFTISRDNAKNSLYLQMNSLRAEDMAVYYCARVGGAWELGYWGQGTLVTVSAGGGGSGGGGSGGGGSGAQSVLTQPPSVSGAPGQRVTISCTGSSSNIGSYYGVHWYQQLPGTAPKLLIYSDTNRPSGVPDRFSGSKSGTSASLAITGLQAEDEADYYCQSYDSSLSGRVFGGGTKLTVLGGQAVVTQEPSLTVSPGGTVTLTCRSSTGAVTTSNYANWVQQKPGQAPRGLIGGTNKRAPGTPARFSGSLLGGKAALTLSGVQPEDEAEYYCALWYSNLWVFGGGTKLTVLGQPKAAPSVTLFPPSSEELQANKATLVCLISDFYPGAVTVAWKADSSPVKAGVETTTPSKQSNNKYAASSYLSLTPEQWKSHRSYSCQVTHEGSTVEKTVAPTECPPCS
notes: Its EpCAM scFv has different HVRs from that of ITAB1002; It has the same anti-CD3 Fab and was transiently expressed; also called EpCAMA×CD3 Fab fusion protein
In test [2], B2 gave a Kd of 47.8 nM, a koff of 0.00647 s⁻¹ and a kon of 135000 M⁻¹ s⁻¹.
